Results as given in US20220185898A1 (Alector, published 2022).
One block for each binder: values may come before it.

Columns and labels:
[1] = target: T1, mouse Sortilin Fc fusion protein (mouse; human, UniProt Q6PHU5 74-754); test: ForteBio, avid;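 further: whole IgG captured on AHQ sensors, then contacted with Sortilin Fc fusion antigen at 100 nM, followed by an off-rate phase in buffer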
T1 construct: whole entry named; also called mSort-Fc

[2] = target: T2, human Sortilin Fc fusion protein (human, UniProt Q99523 78-755); test: ForteBio, avid;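 further: whole IgG captured on AHQ sensors, then contacted with Sortilin Fc fusion antigen at 100 nM, followed by an off-rate phase in buffer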
T2 construct: whole entry named; also called hSort-Fc

[3] = target: T3, mouse Sortilin expressed on 293 / HEK293T cells (mouse, UniProt Q6PHU5 74-825); test: FACS, 293 cells;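 further: antibodies at 10 µg/ml bound to cells for 1 h on ice, detected with PE-labelled anti-human secondary antibody by flow cytometry, reported as mean fluorescence intensity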
T3 construct: full-length recombinant mouse Sortilin; also called mSort; msSort
Procedure: (§1) Cells were harvested, plated at 10⁵/ml in a 96 well plate, washed, and incubated in 100 μl PBS containing 10 μg/ml Mab and 2% FBS for 1 hour in ice. Cells were then washed twice and incubated in 100 μl PBS+2% FBS containing 5 μg/ml PE-conjugated anti-human secondary antibody for 30 minutes in ice. Cells were washed twice in cold PBS and data was acquired on a BD FACS Canto. Data analysis and calculation of MFI values was performed with FlowJo (TreeStar) software version 10.0.7.

[4] = target: T4, human Sortilin expressed on 293 / HEK293T cells (human, UniProt Q99523 78-830); test: FACS, 293 cells;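 further: antibodies at 10 µg/ml bound to cells for 1 h on ice, detected with PE-labelled anti-human secondary antibody by flow cytometry, reported as mean fluorescence intensity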
T4 construct: full-length recombinant human Sortilin; also called hSort; SORT1
Procedure: as §1

[5] = target: T5, biotinylated human Sortilin monomer (human, UniProt Q99523 78-755, limits assumed, biotinylated (Sulfo-NHS-biotin)); test: ForteBio, avidity, biotinylated human Sortilin on sensor
T5 construct: monomer cut from the Fc fusion with IdeS; used unbiotinylated in solution in some formats; also called Bt-hSort; b-H Sort

[6] = target: T6, biotinylated mouse Sortilin monomer (mouse, UniProt Q6PHU5 74-754, limits assumed, biotinylated); test: MSD-SET, Fab
T6 construct: also called Bt-msSort
Procedure: (§2) Antibodies (20 nM in PBS) were coated onto standard bind MSD-ECL plates overnight at 4° C. or at room temperature for 30 min. Plates were then blocked with 1% BSA for 30 min with shaking at 700 rpm, followed by three washes with wash buffer (PB SF+0.05% Tween 20). SET samples were applied and incubated on the plates for 150 s with shaking at 700 rpm followed by one wash. Antigen captured on a plate was detected with 250 ng/ml sulfotag-labeled streptavidin in PBSF by incubation on the plate for 3 min. The plates were washed three times with wash buffer and then read on the MSD Sector Imager 2400 instrument using 1× Read Buffer T with surfactant. The percent free antigen was plotted as a function of titrated antibody in Prism and fit to a quadratic equation to extract the KD. To improve throughput, liquid handling robots were used throughout MSD-SET experiments, including SET sample preparation.

[7] = target: T5, biotinylated human Sortilin monomer; test: MSD-SET, Fab; MSD, Fab, monovalent biotinylated human Sortilin
Procedure: as §2

[8] = target: T5, biotinylated human Sortilin monomer; test: ForteBio, Fab
Procedure: The affinity of the anti-Sortilin antibodies was determined by measuring their KD by ForteBio and MSD. […] Briefly, ForteBio affinity measurements were performed by loading immunoglobulins (IgGs) on-line onto AHQ sensors. Sensors were equilibrated off-line in assay buffer for 30 min and then monitored on-line for 60 seconds for baseline establishment. For avid binding measurement, sensors with loaded IgGs were exposed to 100 nM antigen (human or mouse Sortilin Fc fusion) for 3 min, afterwards they were transferred to assay buffer for 3 min for off-rate measurement. […] Monovalent binding measurements were obtained by loading human or mouse Sortilin Fc fusion antigens to AHQ sensor and followed by exposure to −100 nM Sortilin antibody Fab. […] Kinetics data were fit using a 1:1 binding model in the data analysis software provided by ForteBio.

[9] = target: T7, recombinant mouse Sortilin (R&D Systems) (mouse, UniProt Q6PHU5 74-754, limits assumed); test: ELISA, biotinylated PGRN on immobilized Sortilin
T7 construct: bought; also called mouse SORT1

Kd [1]: 2.74 nM
Kd [2]: 5.74 nM
MFI [3]: 16500
MFI [4]: 8010
Kd [5]: 0.8 nM
B1: S-14 (antibody, V domains shown)
VH: QVQLVQSGAEVKKPGASVKVSCKASGYTFTSYYMSWVRQAPGQGLEWMGIINPSGGSTSYAQKFQGRVTMTRDTSTSTVYMELSSLRSEDTAVYYCARDPSGIAAAGPASRYYYGMDVWGQGTTVTVSS
VL: DIQMTQSPSSLSASVGDRVTITCRASQSISSYLNWYQQKPGKAPKLLIYGASSLQSGVPSRFSGSGSGTDFTLTISSLQPEDFATYYCQQHYVGPFTFGGGTKVEIK
notes: IgG

Kd [6]: 0.73 nM
Kd [7]: 0.029 nM
Kd [8]: 0.614 nM
B2: S-2-1 Fab (Fab, V domains shown)
VH: QVQLVQSGAEVKKPGASVKVSCKASGYTFGAYYMHWVRQAPGQGLEWMGWINPNSGFTRYAQKFQGRVTMTRDTSISTAYMELSRLRSDDTAVYYCARGKRSSGWYEGYGMDVWGQGTTVTVSS
VL: DIQMTQSPSSLSASVGDRVTITCRASQSISSYLNWYQQKPGKAPKLLIYAASSLQSGVPSRFSGSGSGTDFTLTISSLQPEDFATYYCQQSDVSPITFGGGTKVEIK
notes: Fab by papain digestion of the IgG

Kd [9]: 40 nM
B3: recombinant mouse Progranulin (Adipogen) (ligand, UniProt P28798 18-589, looked up)
chain: TQCPDGQFCPVACCLDQGGANYSCCNPLLDTWPRITSHHLDGSCQTHGHCPAGYSCLLTVSGTSSCCPFSKGVSCGDGYHCCPQGFHCSADGKSCFQMSDNPLGAVQCPGSQFECPDSATCCIMVDGSWGCCPMPQASCCEDRVHCCPHGASCDLVHTRCVSPTGTHTLLKKFPAQKTNRAVSLPFSVVCPDAKTQCPDDSTCCELPTGKYGCCPMPNAICCSDHLHCCPQDTVCDLIQSKCLSKNYTTDLLTKLPGYPVKEVKCDMEVSCPEGYTCCRLNTGAWGCCPFAKAVCCEDHIHCCPAGFQCHTEKGTCEMGILQVPWMKKVIAPLRLPDPQILKSDTPCDDFTRCPTNNTCCKLNSGDWGCCPIPEAVCCSDNQHCCPQGFTCLAQGYCQKGDTMVAGLEKIPARQTTPLQIGDIGCDQHTSCPVGQTCCPSLKGSWACCQLPHAVCCEDRQHCCPAGYTCNVKARTCEKDVDFIQPPVLLTLGPKVGNVECGEGHFCHDNQTCCKDSAGVWACCPYLKGVCCRDGRHCCPGGFHCSARGTKCLRKKIPRWDMFLRDPVPRPLL
modifications: biotinylated
notes: also called mPGRN; Bio-mPGRN
